This note sets out measurements from US20160297884A1 (Pfizer, published 2016).

The target in this assay is T1, Human BCMA (human, UniProt Q02223 1-54, limits assumed).
T1 construct: Soluble analyte in SPR; construct not described; also called huBCMA; B-cell maturation antigen
T1 sequence (looked up): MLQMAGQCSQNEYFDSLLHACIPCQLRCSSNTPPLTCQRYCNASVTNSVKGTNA
In words: SPR, IgG immobilised, 37 C. As for the experimental part: All experiments were performed on a Bio-Rad Proteon XPR36 surface Plasmon resonance biosensor (Bio-Rad, Hercules, Calif.). […] The analysis temperature for the immobilization was 25° C. and the running buffer was HBS-T+(10 mM HEPES, 150 mM NaCl, 0.05% Tween-20, pH 7.4). Channels were activated in the analyte (horizontal) direction by injecting a mixture of 1 mM ECD and 0.25 mM NHS for 3 minutes at a flow rate of 30 μL/min. IgGs were immobilized on the activated spots by injecting them in the ligand (vertical) direction at 20 μg/mL in 10 mM Acetate pH 4.5 buffer for 1.5 minutes at […]. The activated surfaces were blocked by injecting 1M ethanolamine, pH 8.5 in the analyte direction for 3 minutes at 30 μL/min.
The analysis temperature for the BCMA binding analysis was 37° C. or 25° C. in a running buffer of HBS-T+, supplemented with 1 mg/mL BSA. A kinetic titration method was employed for the interaction analysis as described in Abdiche, et al. Human BCMA (huBCMA) or cynomolgus monkey BCMA (cyBCMA) analyte was injected in the analyte direction using a series of injections from low to high concentration. The concentrations used were 0.08 nM, 0.4 nM, 2 nM, 10 nM and 50 nM (a 5-membered series, with a 5-fold dilution factor and top concentration of 50 nM). The association time for a given analyte dilution was two minutes. Immediately after the 50 nM BCMA injection, dissociation was monitored for 2 hours.
The sensorgrams were double-referenced and fit to a 1:1 Langmuir with mass transport kinetic titration model in BIAevaluation Software version 4.1.1 (GE Lifesciences, Piscataway, N.J.).
For orientation: In SPR one partner is held on a chip, and binding of the other changes the refractive index at the surface.

One may read the Kd as the concentration at which binding is half-saturated. Higher therefore signals weaker binding. The koff is the first-order rate constant of dissociation. Read a high koff as a short-lived complex. The term kon denotes a measure of how fast the partners come together.

B1: L3.PY/L1.PH/H3.TAQ (antibody, V domains shown)
VH: EVQLLESGGGLVQPGGSLRLSCAASGFTFGSYAMTWVRQAPGKGLEWVSAISGSGGNTFYADSVKGRFTISRDNSKNTLYLQMNSLRAEDTAVYYCTRVSPIAAQMDYWGQGTLVTVSS
VL: EIVLTQSPGTLSLSPGERATLSCRASQSVSPHYLAWYQQKPGQAPRLLIYGASSRATGIPDRFSGSGSGTDFTLTISRLEPEDFAVYYCQHYPYPPSFTFGQGTKVEIK
notes: IgG
For B1, the Kd turned out to be 0.59 nM, the “T ½” value stood at 5.43 min, the koff came to 0.00213 s⁻¹ and the kon worked out at 3.58e+06 M⁻¹ s⁻¹.

B2: L3.PY/L3.KF/H3.AQ (antibody, V domains shown)
VH: EVQLLESGGGLVQPGGSLRLSCAASGFTFGSYAMTWVRQAPGKGLEWVSAISGSGGNTFYADSVKGRFTISRDNSKNTLYLQMNSLRAEDTAVYYCARVSPIAAQMDYWGQGTLVTVSS
VL: EIVLTQSPGTLSLSPGERATLSCRASQSVSSSYLAWYQQKPGQAPRLLIYGASSRATGIPDRFSGSGSGTDFTLTISRLEPEDFAVYYCKFYPYPPSFTFGQGTKVEIK
notes: IgG
With B2, the affinity, expressed as Kd, was 0.65 nM; the “T ½” value was found to be 5.09 min; the koff turned out to be 0.00227 s⁻¹; the kon stood at 3.48e+06 M⁻¹ s⁻¹.

B3: L3.PY/L3.KY/H2.DY (antibody, V domains shown)
VH: EVQLLESGGGLVQPGGSLRLSCAASGFTFGSYAMTWVRQAPGKGLEWVSAIDYSGGNTFYADSVKGRFTISRDNSKNTLYLQMNSLRAEDTAVYYCARVSPIASGMDYWGQGTLVTVSS
VL: EIVLTQSPGTLSLSPGERATLSCRASQSVSSSYLAWYQQKPGQAPRLLIYGASSRATGIPDRFSGSGSGTDFTLTISRLEPEDFAVYYCKYYPYPPSFTFGQGTKVEIK
notes: IgG
Take B3: binding was put at a Kd of 0.2 nM, the “T ½” value turned out to be 18 min, the koff came to 0.000642 s⁻¹ and the kon was determined as 3.19e+06 M⁻¹ s⁻¹.

B4: L3.PY/L3.KF/H2.LT (antibody, V domains shown)
VH: EVQLLESGGGLVQPGGSLRLSCAASGFTFGSYAMTWVRQAPGKGLEWVSAISLTGGNTFYADSVKGRFTISRDNSKNTLYLQMNSLRAEDTAVYYCARVSPIASGMDYWGQGTLVTVSS
VL: EIVLTQSPGTLSLSPGERATLSCRASQSVSSSYLAWYQQKPGQAPRLLIYGASSRATGIPDRFSGSGSGTDFTLTISRLEPEDFAVYYCKFYPYPPSFTFGQGTKVEIK
notes: IgG
Consider B4, for which the Kd amounted to 0.69 nM, the “T ½” value was 6.05 min, the dissociation rate constant (koff) was found to be 0.00191 s⁻¹ and the kon is 2.75e+06 M⁻¹ s⁻¹.

B5: L3.PY/L3.KF/H3.YA (antibody, V domains shown)
VH: EVQLLESGGGLVQPGGSLRLSCAASGFTFGSYAMTWVRQAPGKGLEWVSAISGSGGNTFYADSVKGRFTISRDNSKNTLYLQMNSLRAEDTAVYYCARVSPIYAGMDYWGQGTLVTVSS
VL: EIVLTQSPGTLSLSPGERATLSCRASQSVSSSYLAWYQQKPGQAPRLLIYGASSRATGIPDRFSGSGSGTDFTLTISRLEPEDFAVYYCKFYPYPPSFTFGQGTKVEIK
notes: IgG
Consider B5, for which the Kd turned out to be 0.47 nM, the “T ½” value worked out at 7.85 min, the koff was 0.00147 s⁻¹ and the kon came to 3.12e+06 M⁻¹ s⁻¹.

B6: L3.PY/L3.KF/H2.YQ (antibody, V domains shown)
VH: EVQLLESGGGLVQPGGSLRLSCAASGFTFGSYAMTWVRQAPGKGLEWVSAISYQGGNTFYADSVKGRFTISRDNSKNTLYLQMNSLRAEDTAVYYCARVSPIASGMDYWGQGTLVTVSS
VL: EIVLTQSPGTLSLSPGERATLSCRASQSVSSSYLAWYQQKPGQAPRLLIYGASSRATGIPDRFSGSGSGTDFTLTISRLEPEDFAVYYCKFYPYPPSFTFGQGTKVEIK
notes: IgG
As to B6, the Kd came out at 1.14 nM, the “T ½” value was found to be 5.18 min, the koff is 0.00223 s⁻¹ and the kon amounted to 1.96e+06 M⁻¹ s⁻¹.

B7: L3.PY/L3.KF/H2.DY (antibody, V domains shown)
VH: EVQLLESGGGLVQPGGSLRLSCAASGFTFGSYAMTWVRQAPGKGLEWVSAIDYSGGNTFYADSVKGRFTISRDNSKNTLYLQMNSLRAEDTAVYYCARVSPIASGMDYWGQGTLVTVSS
VL: EIVLTQSPGTLSLSPGERATLSCRASQSVSSSYLAWYQQKPGQAPRLLIYGASSRATGIPDRFSGSGSGTDFTLTISRLEPEDFAVYYCKFYPYPPSFTFGQGTKVEIK
notes: IgG
On to B7, for which the Kd amounted to 0.67 nM, the “T ½” value stood at 6.35 min, the off-rate (koff) came to 0.00182 s⁻¹ and the kon worked out at 2.74e+06 M⁻¹ s⁻¹.

B8: L3.PY/L3.KF/H3.TAQ (antibody, V domains shown)
VH: EVQLLESGGGLVQPGGSLRLSCAASGFTFGSYAMTWVRQAPGKGLEWVSAISGSGGNTFYADSVKGRFTISRDNSKNTLYLQMNSLRAEDTAVYYCTRVSPIAAQMDYWGQGTLVTVSS
VL: EIVLTQSPGTLSLSPGERATLSCRASQSVSSSYLAWYQQKPGQAPRLLIYGASSRATGIPDRFSGSGSGTDFTLTISRLEPEDFAVYYCKFYPYPPSFTFGQGTKVEIK
notes: IgG
B8: the Kd amounted to 0.58 nM, the “T ½” value is 7.12 min, the koff came out at 0.00162 s⁻¹ and the association rate constant (kon) worked out at 2.82e+06 M⁻¹ s⁻¹.

B9: L3.PY/L3.KY/H2.QR (antibody, V domains shown)
VH: EVQLLESGGGLVQPGGSLRLSCAASGFTFGSYAMTWVRQAPGKGLEWVSAISGSGGNTFYADQRKGRFTISRDNSKNTLYLQMNSLRAEDTAVYYCARVSPIASGMDYWGQGTLVTVSS
VL: EIVLTQSPGTLSLSPGERATLSCRASQSVSSSYLAWYQQKPGQAPRLLIYGASSRATGIPDRFSGSGSGTDFTLTISRLEPEDFAVYYCKYYPYPPSFTFGQGTKVEIK
notes: IgG
B9: the affinity, expressed as Kd, was 0.34 nM; the “T ½” value is 11.7 min; the koff amounted to 0.00099 s⁻¹; the kon was found to be 2.95e+06 M⁻¹ s⁻¹.

B10: L3.PY/L3.KY/H2.YQ (antibody, V domains shown)
VH: EVQLLESGGGLVQPGGSLRLSCAASGFTFGSYAMTWVRQAPGKGLEWVSAISYQGGNTFYADSVKGRFTISRDNSKNTLYLQMNSLRAEDTAVYYCARVSPIASGMDYWGQGTLVTVSS
VL: EIVLTQSPGTLSLSPGERATLSCRASQSVSSSYLAWYQQKPGQAPRLLIYGASSRATGIPDRFSGSGSGTDFTLTISRLEPEDFAVYYCKYYPYPPSFTFGQGTKVEIK
notes: IgG
As for B10, the Kd stood at 0.77 nM, the “T ½” value came out at 7.02 min, the koff was 0.00165 s⁻¹ and the on-rate (kon) was determined as 2.14e+06 M⁻¹ s⁻¹.

B11: L3.PY/L3.KF/H3.AE (antibody, V domains shown)
VH: EVQLLESGGGLVQPGGSLRLSCAASGFTFGSYAMTWVRQAPGKGLEWVSAISGSGGNTFYADSVKGRFTISRDNSKNTLYLQMNSLRAEDTAVYYCARVSPIAAEMDYWGQGTLVTVSS
VL: EIVLTQSPGTLSLSPGERATLSCRASQSVSSSYLAWYQQKPGQAPRLLIYGASSRATGIPDRFSGSGSGTDFTLTISRLEPEDFAVYYCKFYPYPPSFTFGQGTKVEIK
notes: IgG
B11: binding was put at a Kd of 0.51 nM, the “T ½” value was determined as 7.44 min, the koff stood at 0.00155 s⁻¹ and the kon is 3.07e+06 M⁻¹ s⁻¹.

B12: L3.PY/L3.KY/H2.HA (antibody, V domains shown)
VH: EVQLLESGGGLVQPGGSLRLSCAASGFTFGSYAMTWVRQAPGKGLEWVSAISHAGGNTFYADSVKGRFTISRDNSKNTLYLQMNSLRAEDTAVYYCARVSPIASGMDYWGQGTLVTVSS
VL: EIVLTQSPGTLSLSPGERATLSCRASQSVSSSYLAWYQQKPGQAPRLLIYGASSRATGIPDRFSGSGSGTDFTLTISRLEPEDFAVYYCKYYPYPPSFTFGQGTKVEIK
notes: IgG
In the case of B12, the Kd amounted to 0.49 nM, the “T ½” value was 7.1 min, the dissociation rate constant (koff) came to 0.00163 s⁻¹ and the kon turned out to be 3.29e+06 M⁻¹ s⁻¹.

B13: L3.PY/L3.KY/H2.LT (antibody, V domains shown)
VH: EVQLLESGGGLVQPGGSLRLSCAASGFTFGSYAMTWVRQAPGKGLEWVSAISLTGGNTFYADSVKGRFTISRDNSKNTLYLQMNSLRAEDTAVYYCARVSPIASGMDYWGQGTLVTVSS
VL: EIVLTQSPGTLSLSPGERATLSCRASQSVSSSYLAWYQQKPGQAPRLLIYGASSRATGIPDRFSGSGSGTDFTLTISRLEPEDFAVYYCKYYPYPPSFTFGQGTKVEIK
notes: IgG
Turning to B13, the Kd is 0.31 nM, the “T ½” value worked out at 12.8 min, the koff was 0.000906 s⁻¹ and the on-rate constant (kon) is 2.92e+06 M⁻¹ s⁻¹.

B14: L3.PY/L3.KF/H2.QL (antibody, V domains shown)
VH: EVQLLESGGGLVQPGGSLRLSCAASGFTFGSYAMTWVRQAPGKGLEWVSAISGSGGNTFYADQLKGRFTISRDNSKNTLYLQMNSLRAEDTAVYYCARVSPIASGMDYWGQGTLVTVSS
VL: EIVLTQSPGTLSLSPGERATLSCRASQSVSSSYLAWYQQKPGQAPRLLIYGASSRATGIPDRFSGSGSGTDFTLTISRLEPEDFAVYYCKFYPYPPSFTFGQGTKVEIK
notes: IgG
Turning to B14, the Kd worked out at 0.6 nM, the “T ½” value was 9.26 min, the koff was determined as 0.00125 s⁻¹ and the kon came to 2.07e+06 M⁻¹ s⁻¹.

B15: L3.PY/L3.KY/H2.QL (antibody, V domains shown)
VH: EVQLLESGGGLVQPGGSLRLSCAASGFTFGSYAMTWVRQAPGKGLEWVSAISGSGGNTFYADQLKGRFTISRDNSKNTLYLQMNSLRAEDTAVYYCARVSPIASGMDYWGQGTLVTVSS
VL: EIVLTQSPGTLSLSPGERATLSCRASQSVSSSYLAWYQQKPGQAPRLLIYGASSRATGIPDRFSGSGSGTDFTLTISRLEPEDFAVYYCKYYPYPPSFTFGQGTKVEIK
notes: IgG
In the case of B15, the affinity, expressed as Kd, was 0.57 nM; the “T ½” value turned out to be 5.56 min; the koff came out at 0.00208 s⁻¹; the kon was 3.65e+06 M⁻¹ s⁻¹.
